Results taken from the supplement of paper PMC12042874.
± gives the uncertainty stated by the source.

Assay: amyloid nucleation score (Sup35N fusion, yeast selection) (log enrichment); library NNK3; higher = more nucleation; inactive = no reads after selection
Summary of the method: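 On medium lacking adenine and uracil, psi-negative yeast expressing peptides of 20 random codons fused to Sup35N were grown 7 days at 30°C after a 24-hour induction with 100 μM copper sulfate. Illumina sequencing of input and output plasmid inserts gave the reads, and sequences under 100 input reads were excluded. The nucleation score is the DiMSum log enrichment of output over input reads, centred on the mode score of non-aggregating sequences.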

| Substance | amyloid nucleation score |
| --- | --- |
| VASVIL | inactive |
| RVCYEFKYKIKYVLD | -0.457 ± 0.5 |
| LSFTEY | inactive |
| KRCPWVRNKSVSYLTSKYKL | inactive |
| SRVWMITRLFGTMA | inactive |
| RWSHDMSCE | inactive |
| TACRFVSSRRELRIEVLTWF | -0.755 ± 1.8 |
| CTECDNSFRPLKNRDTYTAR | 0.046 ± 0.27 |
| NSLWSYMGTVLFNPFWLVWR | inactive |
| LSGFDFAL | inactive |
| YRRGYKITSLLSFYGNHRWP | inactive |
| KILQDKKMFRGFRNGRRAGI | inactive |
| TPDQDMLVMPWISYGGGYWR | inactive |
| FMSFYVLLSSTMVTQFAMGP | inactive |
| KRYAYAVVGGWVVGVRKHHG | inactive |
| HSLTATINTGKLYKSVSKHG | inactive |
| QICTQFRSG | inactive |
| MTVPTCHNDASARLMLRLLG | inactive |
| FGIEQTWSNECSVKTVEMRC | inactive |
| EFYGVVSRVPYERTPGTKVE | inactive |
| FMFNRGAAFNHFTGHTCITY | inactive |
| RGDVLRFTWCSEPGCQRRTT | inactive |
| MMLFNVPKICHRLWLNLHRH | inactive |
| VITIAIELLGVLFVCIGTIV | inactive |

| Substance | amyloid nucleation score |
| --- | --- |
| MLSISFLYFATTVGVDVTLG | inactive |
| STLCSSCKGFDRMRYILVTR | 0.274 ± 0.38 |
| FNPERPKAVDFPILNR | inactive |
| DYESMTCNVSSDTVPFQQA | inactive |
| GCSGVVVGCWRDPRICWLWW | inactive |
| VSMSMRYQDASGVTSCFTSL | inactive |
| DFGVGN | inactive |
| DIVIFVEVNHWFLMGMSHKT | 0.999 ± 0.088 |
| EGYRFCCGMLIN | inactive |
| PFLLSMNVGQGFRRV | inactive |
| MCWLVWLSPRSNDCVDHRFD | -0.163 ± 0.46 |
| CRSIWITPGNYAFALSFLMR | inactive |
| FGAMGGCGNRWKFYQRFTDP | inactive |
| NFQVDNVGSYS | inactive |
| VGNNWS | inactive |
| SRRKGQVVGCLQTMCCCKVE | inactive |
| VKPSLF | -0.567 ± 1 |
| LLLCYYNGIWRFDGRLS | inactive |
| FIFYFCAVLNHYVCVWVRYL | inactive |
| VRSPPVPLNCVE | inactive |
| IMDGFWCIDTGCLTAHGMWM | inactive |
| CSNSGFTGENRVARLPRDGG | inactive |
| VPSPTFIHVARRSRYHYASR | inactive |
| NNQCKACSLWWQSSYPDKMF | inactive |

| Substance | amyloid nucleation score |
| --- | --- |
| KAQAFLWPVPDIQ | -0.571 ± 1.9 |
| VGFKSCS | inactive |
| CLKTFVFMTDTRG | 1.47 ± 0.12 |
| PPCYKI | inactive |
| MVGAPDV | inactive |
| YARWDRSKYMTRYCHCCYFL | inactive |
| VFHWSKLSFVEYHGKCGRSS | inactive |
| LFDILGMYEDMASVGFCIPQ | inactive |
| ALLESFIKKRSMFLNVNGGF | inactive |
| KGFDRMMGVH | inactive |
| VWYVSLTMIWLGSMALGFAR | inactive |
| KGLMVNRELMGSWSRPGCSY | inactive |
| MRFLWCNVCL | 2.07 ± 0.078 |
| KYRFLSKSRMRGSACHGKDQ | inactive |
| EGHHPVGGGLLIFASLT | inactive |
| NCCCLYP | 1.71 ± 0.091 |
| IYEVVMVCISESLFLLMVKG | inactive |
| YSLFWCNNNVRGGKASMWYR | inactive |
| LYVSCWFDLRPSTFYLGSEF | 2.48 ± 0.054 |
| ESPNGFFGSMDVCVLPRGSV | inactive |
| SLMSSATICTFMG | inactive |
| VSLCIDRSMRCPRLVCVERG | inactive |
| KQSYCVWESNYRTMYLNVCR | inactive |
| GSILWGVNMRFLNITAGCDY | inactive |

| Substance | amyloid nucleation score |
| --- | --- |
| FIVVPVGVKHDVS | inactive |
| YLMNVLFAYVD | inactive |
| RAWMCIQW | 0.382 ± 0.25 |
| EILSPVGTSTCILTSPRTCY | inactive |
| TISCTDNFCSFILIRDGLTH | 1.96 ± 0.059 |
| ERRVLISERAQWISLLYGIL | inactive |
| LSLNLSLNMKVKLYVYWGYR | inactive |
| GSYWKHVWLRYTSHGLTPQW | inactive |
| KPLSRSLRHSLCNRTAMIRF | 0.672 ± 0.32 |
| NVYSPKRVLSGCLSPDISEF | inactive |
| YPPWWFYIRNWLISEEE | inactive |
| KFGEAWIIPRDRVMEVFEW | inactive |
| RKLFKKTFYLAPRL | inactive |
| NNTCMNGAVLWSEMAKTGGC | inactive |
| SGRVSTDEKLVKFLRN | inactive |
| VHGKWIDRRYNVISRPLGGG | inactive |
| YSHSGIRIKRLEASEYTWPS | inactive |
| YEGRSNSVRSK | inactive |
| REHLLDHTRLYC | inactive |
| HRDCRKFCSMNTHANMNMLS | inactive |
| SVVPQDDILLNCGLEQAILG | inactive |
| MVLYRFCIVIHWTCTV | inactive |
| VIRNYTIEIMWVWDQKADVQ | inactive |
| EGGLDFVFLYYGIICWVVAA | 0.282 ± 0.74 |

| Substance | amyloid nucleation score |
| --- | --- |
| DTESWNCFFYRDYYSGQILK | inactive |
| YFSSSWGMLKCGFAVFDHLT | inactive |
| MVLGMYKQ | inactive |
| NSTINAPRLTRPGGPCSRKV | inactive |
| SAQFRFKSSV | 1.35 ± 0.089 |
| IIMISLITYFLSLNTSKLYQ | inactive |
| ITNYLWGGKGHRNKVLSNSC | inactive |
| YEHRCCHSNIDIFGLQSRNV | inactive |
| YSSMYFL | inactive |
| DCSSNVRTSCWNHRSYHVVY | inactive |
| HFCLEYTLNVTMHAWTL | inactive |
| IVGLDLCVHWQYLQVRLYII | inactive |
| RCLYTCPYADFSEPNSNLRQ | inactive |
| FASIYNFHDRIVSLRDQGR | inactive |
| RYPTDSVWGIGSGLVN | inactive |
| WVRVVFSGSRYRTVCSGSRC | -0.788 ± 1.4 |
| KANDFTVFLRRVCLLNRVNA | inactive |
| LGGLYLLIFLRSGPRRWSGT | inactive |
| WGGVGKKMKRQRTAGTSRSG | inactive |
| QVPYFYLSVFLFFSPCSINF | 1.74 ± 0.063 |
